Numbering of substitutions follows the chain as printed. Ends that are not written are not given here.
B1: SEQ ID NO 25 (peptide)
peptide: ZGPPISIDLSIGLLRKMIEIEKQEKEKQQAANNRLLLDTI
modifications: C-terminal amide
B2: SEQ ID NO 55 (peptide)
peptide: B1 peptide with S10P, I11W, G12Y
modifications: C-terminal amide
B3: SEQ ID NO 44 (peptide)
peptide: B1 peptide with S10P, I11T, G12F
modifications: C-terminal amide
B4: SEQ ID NO 34 (peptide)
peptide: B1 peptide with S10P, G12K
modifications: C-terminal amide
B5: SEQ ID NO 51 (peptide)
peptide: B1 peptide with S10P, I11T, G12L
modifications: C-terminal amide
B6: SEQ ID NO 57 (peptide)
peptide: B1 peptide with S10P, I11P, G12Y
modifications: C-terminal amide
B7: SEQ ID NO 29 (peptide)
peptide: B1 peptide with S10P, G12F
modifications: C-terminal amide
B8: SEQ ID NO 50 (peptide)
peptide: B1 peptide with S10P, I11T, G12I
modifications: C-terminal amide
B9: SEQ ID NO 54 (peptide)
peptide: B1 peptide with S10P, I11D, G12Y
modifications: C-terminal amide
B10: SEQ ID NO 43 (peptide)
peptide: B1 peptide with S10P, I11T, G12S
modifications: C-terminal amide
B11: SEQ ID NO 52 (peptide)
peptide: B1 peptide with S10P, I11T, G12P
modifications: C-terminal amide
B12: SEQ ID NO 38 (peptide)
peptide: B1 peptide with S10P, G12R
modifications: C-terminal amide
B13: SEQ ID NO 35 (peptide)
peptide: B1 peptide with S10P, G12L
modifications: C-terminal amide
B14: SEQ ID NO 40 (peptide)
peptide: B1 peptide with S10P, I11Y, G12Y
modifications: C-terminal amide
B15: SEQ ID NO 48 (peptide)
peptide: B1 peptide with S10P, I11E, G12Y
modifications: C-terminal amide
B16: SEQ ID NO 46 (peptide)
peptide: B1 peptide with S10P, I11T, G12V
modifications: C-terminal amide
B17: SEQ ID NO 26 (peptide)
peptide: B1 peptide with S10P, G12P
modifications: not fully specified; C-terminal amide
B18: SEQ ID NO 59 (peptide)
peptide: B1 peptide with S10P, I11T, G12N
modifications: C-terminal amide
B19: SEQ ID NO 45 (peptide)
peptide: B1 peptide with S10P, I11T, G12K
modifications: C-terminal amide
B20: SEQ ID NO 42 (peptide)
peptide: B1 peptide with S10P, I11T, G12T
modifications: C-terminal amide
B21: SEQ ID NO 56 (peptide)
peptide: B1 peptide with S10P, I11S, G12Y
modifications: C-terminal amide
B22: SEQ ID NO 30 (peptide)
peptide: B1 peptide with I11L, G12E, R34A, D38A
modifications: C-terminal amide
B23: SEQ ID NO 32 (peptide)
peptide: B1 peptide with S10P, I11A, G12Y
modifications: C-terminal amide
B24: SEQ ID NO 58 (peptide)
peptide: B1 peptide with S10P, I11K, G12Y
modifications: C-terminal amide
B25: SEQ ID NO 31 (peptide)
peptide: B1 peptide with S10P, G12V
modifications: C-terminal amide
B26: SEQ ID NO 36 (peptide)
peptide: B1 peptide with S10P, G12I
modifications: C-terminal amide
B27: SEQ ID NO 28 (peptide)
peptide: B1 peptide with S10P, G12D
modifications: C-terminal amide
B28: SEQ ID NO 47 (peptide)
peptide: B1 peptide with S10P, G12A
modifications: C-terminal amide
B29: SEQ ID NO 41 (peptide)
peptide: B1 peptide with S10P, I11T, G12W
modifications: C-terminal amide
B30: SEQ ID NO 37 (peptide)
peptide: B1 peptide with S10P, G12N
modifications: C-terminal amide
B31: SEQ ID NO 60 (peptide)
peptide: B1 peptide with S10P, I11T, G12R
modifications: C-terminal amide
B32: SEQ ID NO 49 (peptide)
peptide: B1 peptide with S10P, I11T, G12D
modifications: C-terminal amide
B33: SEQ ID NO 39 (peptide)
peptide: B1 peptide with S10P, I11V, G12Y
modifications: C-terminal amide
B34: SEQ ID NO 27 (peptide)
peptide: B1 peptide with S10P, I11Q, G12Y
modifications: C-terminal amide
B35: SEQ ID NO 89 (peptide)
peptide: SQEPPISLDLPLELLREVLEMTKADQLAQQAHSNRKLLDIA-NH2
B36: SEQ ID NO 3 (peptide)
peptide: IVLSLDVPIGLLQILLEQEKARAAREQATTNARILARV-NH2
B37: SEQ ID NO 121 (peptide)
peptide: IVLSLDVPIGLLQILLEQEKARAAREQATTNARILARV-NH2
B38: SEQ ID NO 197 (peptide)
peptide: B1 peptide with S10P, I11Q, G12V
modifications: C-terminal amide
B39: SEQ ID NO 198 (peptide)
peptide: B1 peptide with S10P, I11Q, G12Q
modifications: C-terminal amide
B40: SEQ ID NO 107 (peptide)
peptide: IVLSLDVPIGLLQILLEQEKARAAREQATTNARILARV-NH2

biological target: corticotropin releasing factor 1 receptor; assay: cell-based or functional assay

Binder | CRF1R EC50 [nM] | CRF1R Emax [%]
B1 | 677 | 92.3
B2 | 11.6 | 92
B3 | 944 | 64
B4 | > 1000 | 11
B5 | > 1000 | 48
B6 | > 100 | 12
B7 | > 1000 | 79
B8 | > 1000 | 42
B9 | 1000 | 10
B10 | > 1000 | 10
B11 | > 1000 | 13
B12 | > 1000 | 11
B13 | > 1000 | 74
B14 | 102 | 99
B15 | 1000 | 21
B16 | > 1000 | 17
B17 | > 1000 | 16

Binder | CRF1R EC50 [nM] | CRF1R Emax [%]
B18 | > 100 | 10
B19 | > 1000 | 7
B20 | > 1000 | 10
B21 | > 100 | 14
B22 | 100 | 100
B23 | 606 | 94
B24 | > 100 | 16
B25 | > 1000 | 18
B26 | > 1000 | 33
B27 | > 1000 | 2
B28 | 1000 | 12
B29 | > 1000 | 43
B30 | > 1000 | 5
B31 | > 100 | 8
B32 | > 1000 | 15
B33 | 1000 | 63
B34 | 325 | 100

biological target: T1, corticotropin releasing factor 2 receptor; assay: cell-based or functional assay
T1 sequence (Q13324 whole entry, species assumed, looked up): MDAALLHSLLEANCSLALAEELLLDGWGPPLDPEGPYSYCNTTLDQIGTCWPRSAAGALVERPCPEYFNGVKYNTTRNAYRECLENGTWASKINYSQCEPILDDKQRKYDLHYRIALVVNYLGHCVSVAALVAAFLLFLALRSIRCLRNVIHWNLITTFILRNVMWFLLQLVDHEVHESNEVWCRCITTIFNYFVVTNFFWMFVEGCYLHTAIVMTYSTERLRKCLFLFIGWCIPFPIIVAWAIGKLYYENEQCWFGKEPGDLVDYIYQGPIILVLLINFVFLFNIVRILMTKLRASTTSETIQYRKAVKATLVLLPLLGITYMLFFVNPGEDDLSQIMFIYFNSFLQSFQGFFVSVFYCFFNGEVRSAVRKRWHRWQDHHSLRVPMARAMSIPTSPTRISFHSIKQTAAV

Binder | CRF2R EC50 [nM] | CRF2R Emax [%]
B35 | 100 | 12.7
B36 | 12.1 | 
B37 | 5.67 | 
B1 | 81 | 81.9
B2 | 7.95 | 95
B3 | 19.1 | 87
B4 | > 100 | 45
B5 | 20.6 | 100
B6 | > 100 | 46
B7 | 16 | 100
B8 | 19 | 94
B9 | 100 | 11
B10 | > 100 | 67
B11 | > 100 | 10
B12 | 71.9 | 91
B13 | 15.6 | 88
B14 | 6.95 | 93
B15 | 100 | 14
B16 | > 100 | 100
B17 | 91.8 | 86

Binder | CRF2R EC50 [nM] | CRF2R Emax [%]
B18 | > 100 | 27
B19 | > 100 | 44
B20 | > 100 | 88
B21 | 50.4 | 87
B22 | 18.7 | 85.5
B23 | 20.2 | 98
B24 | 71.6 | 100
B25 | 30.8 | 100
B26 | 14.8 | 73
B38 | 48.1 | 94
B39 | 29.9 | 100
B27 | 100 | 15
B28 | > 100 | 66
B29 | 18.3 | 100
B30 | > 100 | 51
B31 | > 100 | 44
B32 | > 100 | 37
B33 | 58.2 | 94
B34 | 10.7 | 96
B40 | 12.1 | 

Reference: patent US20030148958A1 (PROCTER AND GAMBLE, published 2003)
